Our source for the n (stoichiometry) and Ka values is patent US20130330358A1, “CRYSTAL STRUCTURE AND PEPTIDE INHIBITORS OF HAUSP DEUBIQUITINASE” (priority 2011, published 2013).

In the experiment the target is HAUSP TRAF domain (HAUSP^62-205) (human). As to the kind of experiment: ITC, titration against HAUSP TRAF domain, 20 °C. For orientation: In ITC the heat of successive injections is recorded.

B1: vIRF4^209-216 peptide (peptide)
peptide: EGASTSGM
modifications: not checked
In the case of B1, the n (stoichiometry) worked out at 0.81.

B2: EBNA1^435-449 peptide (peptide)
peptide: EQGPADDPGEGPSTG
modifications: not checked
Take B2: the n (stoichiometry) stood at 0.81.

B3: MDM2^137-152 peptide (peptide)
peptide: LVQELQEEKPSSSHL
modifications: not checked
Molecule B3 showed a Ka of 90000 M⁻¹.
